Experimental data from paper PMC3342691 (Nature structural & molecular biology, 2011).

Target: Xenopus tropicalis tubulin tyrosine ligase (residues 2–377) (Xenopus tropicalis)
Experiment: AUC

Binder: VDSVEGEGEEEGEE [14-residue α–tubulin C-terminal peptide (VDSVEGEGEEEGEE)]
- Kd: ~144 µM
